Assay results as given in US20250277003A1.

Each substance was assayed against SARS-CoV-2 RBD glycan-masked mutant GM14 (SARS-CoV-2) (UniProt P0DTC2) (assay: ELISA, AUC relative to RBD WT).

| Substance | %AUC [%] |
| --- | --- |
| mAb S309 (antibody) | 83.4 |
| mAb CB6 (antibody) | 7.8 |
| mAb CR3022 (antibody) | 72.9 |
| mAb C002 (antibody) | 10.2 |
| mAb EY6A (antibody) | 94.5 |

The substances below were run against SARS-CoV-2 RBD glycan-masked mutant GM9 (SARS-CoV-2) (UniProt P0DTC2) (assay: ELISA, AUC relative to RBD WT).

| Substance | %AUC [%] |
| --- | --- |
| mAb S309 (antibody) | 114 |
| mAb CB6 (antibody) | 7.2 |
| mAb CR3022 (antibody) | 120 |
| mAb C002 (antibody) | 51.3 |
| mAb EY6A (antibody) | 115 |
